Reference: patent publication US20220273713A1, “METHOD OF INHIBITING OR ACTIVATING GAMMA DELTA T CELLS” (The University of Melbourne, priority 2019, published 2022)
Values joined by “and” are separate entries in the source; they are usually repeats but may differ in a detail not shown here. Equal entries are not always repeated. “Also recorded” adds a separate entry of the source.

Tests used:
Assay type in all cases: cell-based, human
[1] = test system: in vitro pre-expanded CD3+Vδ2+ γδ T cells; assay: HMBPP or anti-CD3/anti-CD28 activation of purified in vitro-expanded Vδ2+ T cells ± neutralizing anti-BTN2A1 mAb; details: HMBPP 0.5 ng/ml, 10 μg/ml neutralizing anti-BTN2A1 mAb, no APCs
Description: CD25 expression was determined by flow cytometry, and IFN-γ concentration was determined by cytometric bead array (BD Bioscience) as per manufacturer instructions.

Vγ9Vδ2 cells [2] = assay: Flow cytometry: CD25 on Vγ9Vδ2 cells without phosphoantigen or APCs; details: no addition of APCs or phosphoantigen; listed as 253
Source text: Vγ9Vδ2 cells were stained for CD3, Vδ2, CD25 and live dead viability dye as previously described and analysed on a Canto flow cytometer (BD). Cells were gated on lymphocytes, single cells, live cells, CD3+ Vδ2+, and activation determined based on CD25 expression.

Vγ9Vδ2 cells [3] = assay: Luminex (Vγ9Vδ2): cytokine/chemokine secretion by pre-expanded Vγ9Vδ2 cells;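 also: Vγ9Vδ2 cells purified from PBMC, activated 48 h with CD3 and CD28 plus IL-2, expanded 14 days in IL-2, then thawed and rested overnight in IL-2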
Description: Briefly, Vγ9Vδ2 cells were isolated from 1 healthy donor (Red Cross Australia) and 1 cancer patient derived PBMC using TCRγ/δ+ T Cell Isolation Kit (Miltenyi). Cells were stimulated for 48 hours in TCRPMI supplemented with 100u/ml IL-2, CD3 (10 μg/ml) and CD28 (1 μg/ml). Cells were washed and grown for 14 days in TCRPMI supplemented with 100u/ml IL-2 at 37 degrees C. and 5% CO2, and then frozen down. […] Vγ9Vδ2 were defrosted and rested overnight in TCRPMI supplemented with 50u/ml IL-2 at 37 degrees C. and 5% CO2. […] All samples were run with appropriate controls and standards.

γδ T cells = assay: Identification of BTN2A1 agonistic antibodies: CD25 and interferon γ of expanded γδ T cells; details: 10 μg/ml antibody overnight, vs isotype control BM4
Description: In some experiments γδ T cells were enriched by MACS using PE-Cy7-conjugated anti-γδTCR followed by anti-phycoerythrin-mediated magnetic bead purification (Miltenyi Biotec). After enrichment CD3+Vδ2+ γδ T cells were further purified by sorting using an Aria III (BD). Enriched γδ T cells were stimulated in vitro for 48 h with plate-bound anti-CD3ε (OKT3, 10 ug/ml, Bio-X-Cell), soluble anti-CD28 (CD28.2, 1 ug/ml, BD Pharmingen), phytohemagglutinin (0.5 μg/ml, Sigma), IL-15 (50 ng/ml), and recombinant human IL-2 (100 U/ml, PeproTech), followed by maintenance with IL-2 and IL-15 for 14-21 d. Cells were cultured in complete medium consisting of a 50:50 (v/v) mixture of RPMI-1640 and AIM-V (Invitrogen) supplemented with 10% (v/v) FCS (JRH Biosciences), penicillin (100 U/ml), streptomycin (100 μg/ml), Glutamax (2 mM), sodium pyruvate (1 mM), nonessential amino acids (0.1 mM), and HEPES buffer (15 mM), pH 7.2-7.5 (all from Invitrogen Life Technologies), plus 50 μM 2-mercaptoethanol (Sigma-Aldrich).
The inventors screened the panel of antibodies specific for BTN2A1, as described above, to identify those able to agonise BTN2A1. The inventors assessed the ability of anti-BTN2A1 antibodies to activate γδ T cells. The inventors assessed upregulation of CD25 on the surface of previously expanded γδ T cells following culturing the cells with 10 μg/ml anti-BTN2A1 antibodies or isotype control antibody (BM4) overnight.
The inventors additionally measured levels of interferon γ secreted by γδ T cells following culture in the presence of 10 μg/ml anti-BTN2A1 antibodies or isotype control antibody (BM4) overnight. Interferon γ secretion is another indicator of TCR-dependent activation.

[4] = test system: LM-MEL-62 and LM-MEL-75 melanoma cells; assay: Tumor killing/inhibition assay: γδ T cells with melanoma cells 2:1, MTS and CD25; details: γδ T cells : melanoma cells 2:1, three days, antibody 10 ug/ml
Description: In the following experiments, γδ T cells were enriched by MACS using PE-Cy7-conjugated anti-γδTCR followed by anti-phycoerythrin-mediated magnetic bead purification (Miltenyi Biotec). After enrichment CD3^+ Vδ2^+γδ T cells were further purified by sorting using an Aria III (BD). […] LM-MEL-62 and LM-MEL-75 melanoma cells were plated out 1×10^4 per well in a 96 well flat-bottom plate In RPMI1640 media supplemented with 10% FBS and left to adhere overnight. […] All conditions were repeated in triplicate. Cells were incubated at 37 degrees and on day 3 Vd2+ cells were acquired by flow cytometry. Live cells were gated and activation determined by analysis of CD25 expression. Melanoma cell viability was determined by MTS assay. MTS reagent was added to RPMI media at a 1:5 ratio and 100 ul added per well. Cells were incubated at 37 degrees for 30 minutes and the plate was read on a Spectrostar nano plate reader at 490 nm. […] Cultures were performed with γδ T cells and melanoma cells (LM-MEL-75 or LM-MEL-62) in a 2:1 ratio.

[5] = γδT cells from a healthy donor, 16 hrs, antibodies 10 μg/ml, Zoledronic acid 4 μM, HMBPP 0.5 ng/ml, duplicates, 0 set to 0.1
[6] = γδT cells from a healthy donor, 16 hrs, antibodies 10 μg/ml, Zoledronic acid 4 μM, HMBPP 0.5 ng/ml, duplicates, 0 set to 0.1, listed as 253
[7] = γδT cells from patient 1 (melanoma patient), 16 hrs, antibodies 10 μg/ml, Zoledronic acid 4 μM, HMBPP 0.5 ng/ml, duplicates, 0 set to 0.1
[8] = γδT cells from patient 1 (melanoma patient), 16 hrs, antibodies 10 μg/ml, Zoledronic acid 4 μM, HMBPP 0.5 ng/ml, duplicates, 0 set to 0.1, listed as 253

B1: clone 267: anti-BTN2A1 mAb, partial inhibitor; VH SEQ ID NO: 132, VL SEQ ID NO: 133 (antibody, V domains shown)
VH: EVQLLESGGGLVQPGGSLRLSCAASGFTFSTYVMYWVRQAPGKGLEWVSSISPSGGLTVYVDSVKGRFTISRDNSKNTLYLQMNSLRAEDTAVYYCARVGYSSSDIWGQGTMVTVSS
VL: QYELTQPHSVSESPGKTVTISCTRNGGSIASNAVQWYQQRPGSAPITVIYDDSQRPSGVPDRFSGSIDSSSNTASLTISGLTTEDEADYYCLSFDTTSQIFGGGTKLTVL
modifications: amino acid sequence of clone 267 VH; amino acid sequence of clone 267 VL
In the case of B1, the “HMBPP-induced activation (CD25 upregulation, IFN-γ production)” value [1] is reported as “only a partial inhibitor”.

B2: antibody 253: agonistic anti-BTN2A1 antibody; VL SEQ ID NO: 148, VH SEQ ID NO: 152 (antibody, V domains shown)
VH: EVQLLESGGGLVQPGGSLRLSCAASGFTFSTYDMYWVRQAPGKGLEWVSYISPSGGLTTYADSVKGRFTISRDNSKNTLYLQMNSLRAEDTAVYYCARDHYDSSGRATNYYYYMDVWGKGTTVTVSS
VL: QSALTQPPSASGTPGQRVTLSCSGSSSNIGSNRVNWYQQLPGTAPKLLIDSNNQRPSGVPDRFSGSKSGTSASLAISGLRSEDEVFYYCAAWDDSVHGPVFGGGTMVTVL
modifications: amino acid sequence of the VH of antibody 253; amino acid sequence of the VL of antibody 253
With B2 the “activation of Vγ9Vδ2 cells by CD25 upregulation” value (Vγ9Vδ2 cells [2]) was “activation of Vγ9Vδ2 independent of phosphoantigen; also recorded: can mimic phosphoantigen mediated activation to various degrees”, the “cytokine/chemokine secretion, in words” value (Vγ9Vδ2 cells [3]; across both donors) was “weaker stimulus” and the “cytokine/chemokine secretion, in words” value (Vγ9Vδ2 cells [3]; cancer patient derived Vγ9Vδ2 cells, vs isotype (BM4)) was “No increase in any analyte”. For the same molecule, the “cytokine/chemokine secretion, in words” value (Vγ9Vδ2 cells [3]; healthy donor derived Vγ9Vδ2 cells, vs isotype (BM4)) was “only small increases in the amounts of secreted GMCSF”, the ICAM-1 (Vγ9Vδ2 cells [3]; [5]) was 0.1 pg/mL and the IFNγ (Vγ9Vδ2 cells [3]; [5]) was 0.1 pg/mL. The IL-4 (Vγ9Vδ2 cells [3]; [5]) was 0.1 pg/mL, the IL-8 (Vγ9Vδ2 cells [3]; [5]) was 0.1 pg/mL and the IL-13 (Vγ9Vδ2 cells [3]; [5]) was 0.1 pg/mL. The IL-17A (Vγ9Vδ2 cells [3]; [5]) was 0.1 pg/mL, the TNFα (Vγ9Vδ2 cells [3]; [5]) was 0.1 pg/mL and the sE-selectin (Vγ9Vδ2 cells [3]; [5]) was 0.1 pg/mL. The sP-Selectin (Vγ9Vδ2 cells [3]; [5]) was 0.1 pg/mL, the MIP-1a (Vγ9Vδ2 cells [3]; [6]) was 16.32 pg/mL and 19.57 pg/mL and the MIP-1b (Vγ9Vδ2 cells [3]; [6]) was 117.31 pg/mL and 143.67 pg/mL. For the same molecule, the IL-4 (Vγ9Vδ2 cells [3]; [7]) was 0.1 pg/mL, the IL-8 (Vγ9Vδ2 cells [3]; [7]) was 0.1 pg/mL and the IL-17A (Vγ9Vδ2 cells [3]; [7]) was 0.1 pg/mL. The TNFα (Vγ9Vδ2 cells [3]; [7]) was 0.1 pg/mL, the sP-Selectin (Vγ9Vδ2 cells [3]; [7]) was 0.1 pg/mL and the GMCSF (Vγ9Vδ2 cells [3]; [8]) was 32.02 pg/mL and 33.23 pg/mL. For the same molecule, the ICAM-1 (Vγ9Vδ2 cells [3]; [8]) was 480.81 pg/mL and 405.75 pg/mL, the IFNγ (Vγ9Vδ2 cells [3]; [8]) was 6.87 pg/mL and 3.45 pg/mL and the IL-13 (Vγ9Vδ2 cells [3]; [8]) was 45.16 pg/mL and 36.92 pg/mL. The MIP-1a (Vγ9Vδ2 cells [3]; [8]) was 133.36 pg/mL and 137.25 pg/mL, the MIP-1b (Vγ9Vδ2 cells [3]; [8]) was 901.33 pg/mL and 941.65 pg/mL and the sE-selectin (Vγ9Vδ2 cells [3]; [8]) was 142.97 pg/mL and 101.78 pg/mL. For the same molecule, the “level of secreted interferon γ” value (γδ T cells) was “increase the level of secreted interferon γ”, the “percentage of γδ T cells expressing CD25” value (γδ T cells) was “increase the percentage of γδ T cells expressing CD25” and the “CD25 level of expression on γδ T cells in co-culture” value [4] was “upregulated”.

B3: clone 266: neutralizing anti-BTN2A1 mAb; VH SEQ ID NO: 124, VL SEQ ID NO: 125 (antibody, V domains shown)
VH: EVQLLESGGGLVQPGGSLRLSCAASGFTFSMYTMMWVRQAPGKGLEWVSGIGSSGGHTKYADSVKGRFTISRDNSKNTLYLQMNSLRAEDTAVYYCARYGHTFETWGQGTMVTVSS
VL: QYELTQPPSASGTPGQRVTISCSGSSSNIGSNYVYWYQQLPGTAPKLLIYRNNQRPSGVPDRFSGSKSGTSASLAISGLRSEDEADYYCAAWDDSLSGSYVFGTGTKVTVL
modifications: amino acid sequence of clone 266 VH; amino acid sequence of clone 266 VL
In the case of B3, the “HMBPP-induced activation (CD25 upregulation, IFN-γ production)” value [1] is reported as “failed to upregulate CD25 and produce IFN-γ”.

B4: antibody 244: agonistic anti-BTN2A1 antibody; VL SEQ ID NO: 140, VH SEQ ID NO: 144 (antibody, V domains shown)
VH: EVQLLESGGGLVQPGGSLRLSCAASGFTFSEYSMSWVRQAPGKGLEWVSRIGPSGGGTVYADSVKGRFTISRDNSKNTLYLQMNSLRAEDTAMYYCARLGRGAVAELDYWGQGTLVTVSS
VL: QSVLTQPHSVSESPGKTVTISCTRSSGRIGSNYVHWYQHLPGRAPKLLIYGNSNRPSGVPDRFSGSKSGTSASLAITGLQADDEADYYCQTYDNNVWVFGGGTKLTVL
modifications: amino acid sequence of the VH of antibody 244; amino acid sequence of the VL of antibody 244
For B4, the “level of secreted interferon γ” value (γδ T cells) was “increase the level of secreted interferon γ” and the “percentage of γδ T cells expressing CD25” value (γδ T cells) was “increase the percentage of γδ T cells expressing CD25”.
